Experimental data: paper PMC11894413, “The conformational landscape of TRiC ring-opening and its underlying stepwise mechanism revealed by cryo-EM” (QRB Discovery, 2024)

Experiments:
[1] = target: the molecule itself; test: cryo-EM structure; purified yeast TRiC, 1 mg/ml, with 1 mM ADP and 5 mM MgCl2, 15 min at 30 °C before freezing; five conformational states S1-S5 (closed to open) from one sample; contacts differ between the states
[2] = target: T1, CCT4 subunit of yeast TRiC/CCT (yeast, UniProt P39078 1-528); test: as above; settings: both partners purified
T1 construct: CCT4 subunit of the chaperonin TRiC/CCT, yeast; subunit of the purified hetero-oligomeric complex; Purified according to Zang et al., 2016; source: endogenous, purified from yeast lysate as part of TRiC (calmodulin resin, eluted with 2 mM EGTA)
T1 sequence (P39078 whole entry): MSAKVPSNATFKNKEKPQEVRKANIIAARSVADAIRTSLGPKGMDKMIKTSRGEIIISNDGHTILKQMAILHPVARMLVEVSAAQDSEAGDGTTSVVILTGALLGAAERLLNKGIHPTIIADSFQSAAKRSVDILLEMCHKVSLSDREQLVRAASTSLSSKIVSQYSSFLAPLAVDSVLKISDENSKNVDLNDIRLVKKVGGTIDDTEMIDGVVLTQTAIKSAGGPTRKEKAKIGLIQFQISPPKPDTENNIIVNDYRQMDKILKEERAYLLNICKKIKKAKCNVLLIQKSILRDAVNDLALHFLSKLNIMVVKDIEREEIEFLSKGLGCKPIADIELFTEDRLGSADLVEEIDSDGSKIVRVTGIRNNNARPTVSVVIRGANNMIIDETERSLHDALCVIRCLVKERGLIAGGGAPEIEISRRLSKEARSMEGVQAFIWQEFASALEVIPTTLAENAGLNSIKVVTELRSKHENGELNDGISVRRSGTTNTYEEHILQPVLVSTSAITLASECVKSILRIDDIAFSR

Row | binding result [2] | Binder | binding result [1]
1 | binds | CCT2 subunit of yeast TRiC/CCT (natural protein, UniProt P39076 1-527, looked up, CCT2 subunit of the chaperonin TRiC/CCT, yeast; subunit of the purified hetero-oligomeric complex; Purified according to Zang et al., 2016; source: endogenous, purified from yeast lysate as part of TRiC (calmodulin resin, eluted with 2 mM EGTA)) MSVQIFGDQVTEERAENARLSAFVGAIAVGDLVKSTLGPKGMDKLLQSASSNTCMVTNDGATILKSIPLDNPAAKVLVNISKVQDDEVGDGTTSVTVLSAELLREAEKLIDQSKIHPQTIIEGYRLASAAALDALTKAAVDNSHDKTMFREDLIHIAKTTLSSKILSQDKDHFAELATNAILRLKGSTNLEHIQIIKILGGKLSDSFLDEGFILAKKFGNNQPKRIENAKILIANTTLDTDKVKIFGTKFKVDSTAKLAQLEKAEREKMKNKIAKISKFGINTFINRQLIYDYPEQLFTDLGINSIEHADFEGVERLALVTGGEVVSTFDEPSKCKLGECDVIEEIMLGEQPFLKFSGCKAGEACTIVLRGATDQTLDEAERSLHDALSVLSQTTKETRTVLGGGCAEMVMSKAVDTEAQNIDGKKSLAVEAFARALRQLPTILADNAGFDSSELVSKLRSSIYNGISTSGLDLNNGTIADMRQLGIVESYKLKRAVVSSASEAAEVLLRVDNIIRARPRTANRQHM | binds
2 |  | CCT6 subunit of yeast TRiC/CCT (natural protein, CCT6 subunit of the chaperonin TRiC/CCT, yeast; subunit of the purified hetero-oligomeric complex; Purified according to Zang et al., 2016; source: endogenous, purified from yeast lysate as part of TRiC (calmodulin resin, eluted with 2 mM EGTA)) not shown | binds
